Molecular target: the molecule itself
Experiment: crystal structure; DNMT3A(628-912, WT or R882H)-DNMT3L(178-386) tetramer covalently bound to 25-mer zebularine DNA duplex (CGA, CGT or CAG) and SAH; crystals at 4 °C from 0.1 M sodium citrate pH 4.2 or 4.4, PEG8000

B1: DNMT3A R882H mutant, MTase (C-terminal) domain, residues 628-912 (domain or fragment, UniProt Q9Y6K1 628-912, looked up)
chain: AEKRKPIRVLSLFDGIATGLLVLKDLGIQVDRYIASEVCEDSITVGMVRHQGKIMYVGDVRSVTQKHIQEWGPFDLVIGGSPCNDLSIVNPARKGLYEGTGRLFFEFYRLLHDARPKEGDDRPFFWLFENVVAMGVSDKRDISRFLESNPVMIDAKEVSAAHRARYFWGNLPGMNRPLASTVNDKLELQECLEHGRIAKFSKVRTITTRSNSIKQGKDQHFPVFMNEKEDILWCTEMERVFGFPVHYTDVSNMSHLARQRLLGRSWSVPVIRHLFAPLKEYFACV
modifications: catalytic cysteine C710 covalently linked to zebularine of the DNA (in the crystallised complexes)
notes: DNMT3A, MTase domain (C-terminal domain), residues 628-912, with the AML hotspot mutation R882H; R882H is a mutation found in acute myeloid leukemia patients; it was removed by ULP1; also called R882H-mutated DNMT3A; R882H DNMT3A; source: E. coli BL21 DE3 (RIL), co-expressed with DNMT3L, purified (Ni-NTA, Heparin, SEC); not shown: His6-SUMO, N-terminal, cleaved
  binding result: binds

Source: paper PMC7210271, “Structural basis for impairment of DNA methylation by the DNMT3A R882H mutation” (Nature Communications, 2020)
